Test results reported in patent US20140315986, “APTAMERS THAT BIND TO IL-6 AND THEIR USE IN TREATING OR DIAGNOSING IL-6 MEDIATED CONDITIONS” (Otsuka Pharmaceutical Co., Ltd., published 2014).

B1: 2574-49_326 (ssDNA)
DNA: GGGUUAUGUAGCGUGCGUAAGGCGGU
modifications: G-G1-G-Nap1-Nap-A-Nap-G-Nap1-A-G-C-C3-C3-G-U1-G1-C-G-Nap1-A-A-G-G-C-G1-G1-Nap1 (1=2'-OMe)
B2: 2574-49_411 (ssDNA)
DNA: GGGUUAUGUAGCGUGCGUAAGGCGGU
modifications: G-G1-G-Nap1-Nap2-A2-Nap2-G-Nap1-A2-G1-C1-C3-C3-G1-U1-G1-C2-G2-Nap1-A2-A2-G2-G1-C2-G1-G1-Nap1 (1=2'-OMe, 2=PS)
B3: 2573-20_780 (ssDNA)
DNA: GGCAGGUUUGGUAUUAACACGUUAAGUCGUGG
modifications: G-G-C1-A-G-G1-Bn-Bn-Pe2-G-G-Nap-A-Bn-Bn-A1-A-C-A1-C1-G-Bn-Bn2-A-A-G-Bn-C1-G-Bn2-G-G (1=2'-OMe, 2=PS)
B4: 2574-49_338 (ssDNA)
DNA: GGGUUAUGUAGCGUGCGUAAGGCGGU
modifications: G-G1-G-Nap1-Nap2-A-Nap-G-Nap1-A-G-C-C3-C3-G1-U1-G1-C-G-Nap1-A-A-G-G-C-G1-G1-Nap1 (1=2'-OMe, 2=PS)

biological target: IL-6 (mature human interleukin-6) (Homo sapiens, UniProt P05231 SEQ:1-184); assay: cell_activity; details: tags: untagged, R&D Systems; biotinylated with NHS-PEO4-biotin for SELEX
Sequence (P05231 29-212): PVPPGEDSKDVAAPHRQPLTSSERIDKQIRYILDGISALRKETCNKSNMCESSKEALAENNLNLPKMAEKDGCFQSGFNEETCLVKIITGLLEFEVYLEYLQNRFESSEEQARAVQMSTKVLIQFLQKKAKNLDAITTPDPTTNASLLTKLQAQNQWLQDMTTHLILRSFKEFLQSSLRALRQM

Which IC50 does the source give for B1 here?
Its IC50 is 0.11 nM.

For B2, which IC50 is on record?
The IC50 was 5.8 nM.

Which IC50 does the source give for B3 here?
The IC50 was 0.087 nM.

Which IC50 does the source give for B4 here?
The IC50 was 0.02 nM.
